Target: Kluyveromyces marxianus GCN2 histidyl-tRNA synthetase-like (HRSL) domain, residues 996-1,511 (Kluyveromyces marxianus)
Assay: SEC

stoichiometry N: 2
Substance: Kluyveromyces marxianus GCN2 histidyl-tRNA synthetase-like (HRSL) domain, residues 996-1,511 (domain or fragment)
